Measured values published in patent US20160272683A1 (Novo Nordisk, published 2016).
Numbered stars: 1 amine (or outer) side, 2 acyl side, 3 side chain; on linkers, the order of the positions; unused ones are H or OH. * marks the point of attachment. C20 diacid = O=C(O)CCCCCCCCCCCCCCCCCCC(=O)*; C18 diacid = O=C(O)CCCCCCCCCCCCCCCCC(=O)*; γGlu = O=C(O)[C@H](CCC(=O)[*:2])N[*:1]; AEEA = NCCOCCOCC(=O)O

T1: human calcitonin receptor (human, UniProt P30988 25-474)
T1 construct: whole, on cells; also called hCT-R; hCTR
T1 sequence (looked up): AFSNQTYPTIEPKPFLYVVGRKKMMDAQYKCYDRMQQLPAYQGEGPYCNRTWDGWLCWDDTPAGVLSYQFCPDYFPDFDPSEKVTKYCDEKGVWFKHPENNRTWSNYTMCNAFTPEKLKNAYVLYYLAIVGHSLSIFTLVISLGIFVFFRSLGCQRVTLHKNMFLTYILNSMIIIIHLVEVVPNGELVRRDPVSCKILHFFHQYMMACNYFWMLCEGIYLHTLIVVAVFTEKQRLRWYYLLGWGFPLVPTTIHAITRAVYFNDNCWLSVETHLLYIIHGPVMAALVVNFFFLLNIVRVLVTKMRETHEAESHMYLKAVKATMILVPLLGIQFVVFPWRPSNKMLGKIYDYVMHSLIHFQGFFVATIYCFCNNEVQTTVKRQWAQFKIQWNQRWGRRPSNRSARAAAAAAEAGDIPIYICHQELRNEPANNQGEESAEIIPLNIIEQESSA

B1: [N-terminal(C20 diacid-gGlu), -1E, 1A, 23Y, 30S, 31G]mimylin (peptide)
peptide: {C20 diacid-γGlu}-EAASELSTAALGRLSAELHELATYPRTETGSGSP-NH2
SMILES: CC(C)C[C@H](NC(=O)[C@H](C)NC(=O)[C@H](C)NC(=O)[C@@H](NC(=O)[C@H](CO)NC(=O)[C@H](CC(C)C)NC(=O)[C@H](CCC(=O)O)NC(=O)[C@H](CO)NC(=O)[C@H](C)NC(=O)[C@H](C)NC(=O)[C@H](CCC(=O)O)NC(=O)CC[C@H](NC(=O)CCCCCCCCCCCCCCCCCCC(=O)O)C(=O)O)[C@@H](C)O)C(=O)NCC(=O)N[C@@H](CCCNC(=N)N)C(=O)N[C@@H](CC(C)C)C(=O)N[C@@H](CO)C(=O)N[C@@H](C)C(=O)N[C@@H](CCC(=O)O)C(=O)N[C@@H](CC(C)C)C(=O)N[C@@H](Cc1c[nH]cn1)C(=O)N[C@@H](CCC(=O)O)C(=O)N[C@@H](CC(C)C)C(=O)N[C@@H](C)C(=O)N[C@H](C(=O)N[C@@H](Cc1ccc(O)cc1)C(=O)N1CCC[C@H]1C(=O)N[C@@H](CCCNC(=N)N)C(=O)N[C@H](C(=O)N[C@@H](CCC(=O)O)C(=O)N[C@H](C(=O)NCC(=O)N[C@@H](CO)C(=O)NCC(=O)N[C@@H](CO)C(=O)N1CCC[C@H]1C(N)=O)[C@@H](C)O)[C@@H](C)O)[C@@H](C)O
notes: also called Ex. #83
B2: [N-terminal(C18 diacid-gGlu-2xOEG), des1, 4G, 9V, 15Q, 21Q, 23Y, 30S, 31G, 32T, 33Y]mimylin (peptide)
peptide: {C18 diacid-γGlu-AEEA-AEEA}-ASGLSTAVLGRLSQELHELQTYPRTETGSGTY-NH2
SMILES: CC(C)C[C@H](NC(=O)CNC(=O)[C@H](CO)NC(=O)[C@H](C)NC(=O)COCCOCCNC(=O)COCCOCCNC(=O)CC[C@H](NC(=O)CCCCCCCCCCCCCCCCC(=O)O)C(=O)O)C(=O)N[C@@H](CO)C(=O)N[C@H](C(=O)N[C@@H](C)C(=O)N[C@H](C(=O)N[C@@H](CC(C)C)C(=O)NCC(=O)N[C@@H](CCCNC(=N)N)C(=O)N[C@@H](CC(C)C)C(=O)N[C@@H](CO)C(=O)N[C@@H](CCC(N)=O)C(=O)N[C@@H](CCC(=O)O)C(=O)N[C@@H](CC(C)C)C(=O)N[C@@H](Cc1c[nH]cn1)C(=O)N[C@@H](CCC(=O)O)C(=O)N[C@@H](CC(C)C)C(=O)N[C@@H](CCC(N)=O)C(=O)N[C@H](C(=O)N[C@@H](Cc1ccc(O)cc1)C(=O)N1CCC[C@H]1C(=O)N[C@@H](CCCNC(=N)N)C(=O)N[C@H](C(=O)N[C@@H](CCC(=O)O)C(=O)N[C@H](C(=O)NCC(=O)N[C@@H](CO)C(=O)NCC(=O)N[C@H](C(=O)N[C@@H](Cc1ccc(O)cc1)C(N)=O)[C@@H](C)O)[C@@H](C)O)[C@@H](C)O)[C@@H](C)O)C(C)C)[C@@H](C)O
notes: also called Ex. #121
B3: [N-terminal(C20 diacid-gGlu), des1, 4G, 8L, 9V, 15Q, 21Q, 23Y, 30S, 31Q, 32T, 33Y]mimylin (peptide)
peptide: {C20 diacid-γGlu}-ASGLSTLVLGRLSQELHELQTYPRTETGSQTY-NH2
SMILES: CC(C)C[C@H](NC(=O)CNC(=O)[C@H](CO)NC(=O)[C@H](C)NC(=O)CC[C@H](NC(=O)CCCCCCCCCCCCCCCCCCC(=O)O)C(=O)O)C(=O)N[C@@H](CO)C(=O)N[C@H](C(=O)N[C@@H](CC(C)C)C(=O)N[C@H](C(=O)N[C@@H](CC(C)C)C(=O)NCC(=O)N[C@@H](CCCNC(=N)N)C(=O)N[C@@H](CC(C)C)C(=O)N[C@@H](CO)C(=O)N[C@@H](CCC(N)=O)C(=O)N[C@@H](CCC(=O)O)C(=O)N[C@@H](CC(C)C)C(=O)N[C@@H](Cc1c[nH]cn1)C(=O)N[C@@H](CCC(=O)O)C(=O)N[C@@H](CC(C)C)C(=O)N[C@@H](CCC(N)=O)C(=O)N[C@H](C(=O)N[C@@H](Cc1ccc(O)cc1)C(=O)N1CCC[C@H]1C(=O)N[C@@H](CCCNC(=N)N)C(=O)N[C@H](C(=O)N[C@@H](CCC(=O)O)C(=O)N[C@H](C(=O)NCC(=O)N[C@@H](CO)C(=O)N[C@@H](CCC(N)=O)C(=O)N[C@H](C(=O)N[C@@H](Cc1ccc(O)cc1)C(N)=O)[C@@H](C)O)[C@@H](C)O)[C@@H](C)O)[C@@H](C)O)C(C)C)[C@@H](C)O
B4: [N-terminal(C20 diacid), des1, 4G, 15Q, 21Q, 23Y, 30S, 31G, 32T, 33Y]mimylin (peptide)
peptide: {C20 diacid}-ASGLSTAALGRLSQELHELQTYPRTETGSGTY-NH2
SMILES: CC(C)C[C@H](NC(=O)CNC(=O)[C@H](CO)NC(=O)[C@H](C)NC(=O)CCCCCCCCCCCCCCCCCCC(=O)O)C(=O)N[C@@H](CO)C(=O)N[C@H](C(=O)N[C@@H](C)C(=O)N[C@@H](C)C(=O)N[C@@H](CC(C)C)C(=O)NCC(=O)N[C@@H](CCCNC(=N)N)C(=O)N[C@@H](CC(C)C)C(=O)N[C@@H](CO)C(=O)N[C@@H](CCC(N)=O)C(=O)N[C@@H](CCC(=O)O)C(=O)N[C@@H](CC(C)C)C(=O)N[C@@H](Cc1c[nH]cn1)C(=O)N[C@@H](CCC(=O)O)C(=O)N[C@@H](CC(C)C)C(=O)N[C@@H](CCC(N)=O)C(=O)N[C@H](C(=O)N[C@@H](Cc1ccc(O)cc1)C(=O)N1CCC[C@H]1C(=O)N[C@@H](CCCNC(=N)N)C(=O)N[C@H](C(=O)N[C@@H](CCC(=O)O)C(=O)N[C@H](C(=O)NCC(=O)N[C@@H](CO)C(=O)NCC(=O)N[C@H](C(=O)N[C@@H](Cc1ccc(O)cc1)C(N)=O)[C@@H](C)O)[C@@H](C)O)[C@@H](C)O)[C@@H](C)O)[C@@H](C)O
B5: [N-terminal(C20 diacid-gGlu), des1, 2L, 4G, 9V, 21S, 23Y, 30S, 31G, 32T, 33Y]mimylin (peptide)
peptide: {C20 diacid-γGlu}-LSGLSTAVLGRLSAELHELSTYPRTETGSGTY-NH2
SMILES: CC(C)C[C@H](NC(=O)CC[C@H](NC(=O)CCCCCCCCCCCCCCCCCCC(=O)O)C(=O)O)C(=O)N[C@@H](CO)C(=O)NCC(=O)N[C@@H](CC(C)C)C(=O)N[C@@H](CO)C(=O)N[C@H](C(=O)N[C@@H](C)C(=O)N[C@H](C(=O)N[C@@H](CC(C)C)C(=O)NCC(=O)N[C@@H](CCCNC(=N)N)C(=O)N[C@@H](CC(C)C)C(=O)N[C@@H](CO)C(=O)N[C@@H](C)C(=O)N[C@@H](CCC(=O)O)C(=O)N[C@@H](CC(C)C)C(=O)N[C@@H](Cc1c[nH]cn1)C(=O)N[C@@H](CCC(=O)O)C(=O)N[C@@H](CC(C)C)C(=O)N[C@@H](CO)C(=O)N[C@H](C(=O)N[C@@H](Cc1ccc(O)cc1)C(=O)N1CCC[C@H]1C(=O)N[C@@H](CCCNC(=N)N)C(=O)N[C@H](C(=O)N[C@@H](CCC(=O)O)C(=O)N[C@H](C(=O)NCC(=O)N[C@@H](CO)C(=O)NCC(=O)N[C@H](C(=O)N[C@@H](Cc1ccc(O)cc1)C(N)=O)[C@@H](C)O)[C@@H](C)O)[C@@H](C)O)[C@@H](C)O)C(C)C)[C@@H](C)O
B6: [N-terminal(C20 diacid-gGlu), des1, 23Y, 30S, 31G, 34G, C-terminal(-)]mimylin (peptide)
peptide: {C20 diacid-γGlu}-ASELSTAALGRLSAELHELATYPRTETGSGSPG-OH
SMILES: CC(C)C[C@H](NC(=O)[C@H](C)NC(=O)[C@H](C)NC(=O)[C@@H](NC(=O)[C@H](CO)NC(=O)[C@H](CC(C)C)NC(=O)[C@H](CCC(=O)O)NC(=O)[C@H](CO)NC(=O)[C@H](C)NC(=O)CC[C@H](NC(=O)CCCCCCCCCCCCCCCCCCC(=O)O)C(=O)O)[C@@H](C)O)C(=O)NCC(=O)N[C@@H](CCCNC(=N)N)C(=O)N[C@@H](CC(C)C)C(=O)N[C@@H](CO)C(=O)N[C@@H](C)C(=O)N[C@@H](CCC(=O)O)C(=O)N[C@@H](CC(C)C)C(=O)N[C@@H](Cc1c[nH]cn1)C(=O)N[C@@H](CCC(=O)O)C(=O)N[C@@H](CC(C)C)C(=O)N[C@@H](C)C(=O)N[C@H](C(=O)N[C@@H](Cc1ccc(O)cc1)C(=O)N1CCC[C@H]1C(=O)N[C@@H](CCCNC(=N)N)C(=O)N[C@H](C(=O)N[C@@H](CCC(=O)O)C(=O)N[C@H](C(=O)NCC(=O)N[C@@H](CO)C(=O)NCC(=O)N[C@@H](CO)C(=O)N1CCC[C@H]1C(=O)NCC(=O)O)[C@@H](C)O)[C@@H](C)O)[C@@H](C)O
notes: also called Ex. #89
B7: [N-terminal(C20 diacid-gGlu), des1, 23Y, 30S, 31G, 34K, C-terminal(-)]mimylin (peptide)
peptide: {C20 diacid-γGlu}-ASELSTAALGRLSAELHELATYPRTETGSGSPK-OH
SMILES: CC(C)C[C@H](NC(=O)[C@H](C)NC(=O)[C@H](C)NC(=O)[C@@H](NC(=O)[C@H](CO)NC(=O)[C@H](CC(C)C)NC(=O)[C@H](CCC(=O)O)NC(=O)[C@H](CO)NC(=O)[C@H](C)NC(=O)CC[C@H](NC(=O)CCCCCCCCCCCCCCCCCCC(=O)O)C(=O)O)[C@@H](C)O)C(=O)NCC(=O)N[C@@H](CCCNC(=N)N)C(=O)N[C@@H](CC(C)C)C(=O)N[C@@H](CO)C(=O)N[C@@H](C)C(=O)N[C@@H](CCC(=O)O)C(=O)N[C@@H](CC(C)C)C(=O)N[C@@H](Cc1c[nH]cn1)C(=O)N[C@@H](CCC(=O)O)C(=O)N[C@@H](CC(C)C)C(=O)N[C@@H](C)C(=O)N[C@H](C(=O)N[C@@H](Cc1ccc(O)cc1)C(=O)N1CCC[C@H]1C(=O)N[C@@H](CCCNC(=N)N)C(=O)N[C@H](C(=O)N[C@@H](CCC(=O)O)C(=O)N[C@H](C(=O)NCC(=O)N[C@@H](CO)C(=O)NCC(=O)N[C@@H](CO)C(=O)N1CCC[C@H]1C(=O)N[C@@H](CCCCN)C(=O)O)[C@@H](C)O)[C@@H](C)O)[C@@H](C)O
notes: also called Ex. #90

The binders below were run against T1, human calcitonin receptor (assay: whole-cell competition vs 125I-human calcitonin (Assay VIIa)).
How it was run: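 BHK tk'ts 13 cells stably co-expressing human calcitonin receptor and a CRE-luciferase reporter, seeded overnight at 37 °C. Bound tracer counted by scintillation after cold HBSS washes and NaOH/SDS lysis; IC₅₀ from one-site competition fit taken as receptor affinity.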

IC50 [nM] | Binder
1.57 | B1
0.3 | B2
1.83 | B3
0.747 | B4
5.62 | B5
3.6 | B6
6.84 | B7
